The Human Domainome abundance scans (Beltran et al. 2025)
± gives the uncertainty stated by the source.

B1: Segment polarity protein dishevelled homolog DVL-3, residues 2 to 81; numbered along this chain, Q92997 (parent)
chain: GETKIIYHLDGQETPYLVKLPLPAERVTLADFKGVLQRPSYKFFFKSMDDDFGVVKEEISDDNAKLPCFNGRVVSWLVSA

Variants of: B1
Experiment: abundance fitness (aPCA) (normalised: wild type 0, dead -1); higher = more abundant; growth selection in yeast, the domain comes from the species named
Conditions: Homo sapiens

Abundance fitness of substitutions, site by site:
G1: K 0.191 ± 0.11, F 0.109 ± 0.23, Q -0.035 ± 0.16, T -0.198 ± 0.12, N -0.444 ± 0.26, I -0.324 ± 0.26, M -0.074 ± 0.14, Y -0.124 ± 0.21, P 0.022 ± 0.24
E2: N 0.052 ± 0.09, K -0.723 ± 0.13, R -0.579 ± 0.072, P -0.491 ± 0.11, Q -0.194 ± 0.085, D -0.516 ± 0.11, G -0.62 ± 0.068, T -0.079 ± 0.066, C -0.038 ± 0.08, W -0.121 ± 0.076, V -0.129 ± 0.051, M -0.281 ± 0.093, H -0.164 ± 0.1, Y -0.049 ± 0.083, S -0.082 ± 0.059, L -0.341 ± 0.07, A -0.511 ± 0.077
H8: G -0.668 ± 0.081, K -0.548 ± 0.11, S -0.617 ± 0.095, F 0.23 ± 0.078, I -0.681 ± 0.17, T -0.503 ± 0.1, L -0.542 ± 0.076, P -0.225 ± 0.1, N -0.661 ± 0.17, E -1.06 ± 0.21, A -0.772 ± 0.11, Q -0.747 ± 0.15, M -0.455 ± 0.11, R -0.326 ± 0.062, W 0.027 ± 0.063, V -0.494 ± 0.075, C -1.19 ± 0.3, Y 0.19 ± 0.072
L9: G -0.622 ± 0.063, A -0.518 ± 0.075, Q -0.825 ± 0.13, E -0.546 ± 0.092, F -0.575 ± 0.14, I 0.163 ± 0.072, Y -0.581 ± 0.15, R -0.704 ± 0.068, D -0.535 ± 0.13, H -1.14 ± 0.38, N -0.888 ± 0.23, K -0.574 ± 0.095, C -0.528 ± 0.12, P -0.695 ± 0.13, S -0.366 ± 0.068, T -0.767 ± 0.12, V 0.167 ± 0.043, M -0.283 ± 0.079
L17: I 0.447 ± 0.084, M 0.428 ± 0.061, W 0.022 ± 0.055, C 0.347 ± 0.068, N -0.482 ± 0.16, G -0.434 ± 0.061, D -0.677 ± 0.2, F 0.328 ± 0.068, P -0.907 ± 0.15, K -0.367 ± 0.093, Q 0.271 ± 0.057, T 0.479 ± 0.049, A -0.098 ± 0.057, R -0.337 ± 0.054, S 0.245 ± 0.047, E 0.75 ± 0.046, H 0.335 ± 0.091, Y 0.258 ± 0.086
I6: E 0.153 ± 0.053, S -0.431 ± 0.073, M -0.502 ± 0.097, Y 0.248 ± 0.07, N -0.451 ± 0.13, L -0.152 ± 0.055, C -0.467 ± 0.1, F -0.015 ± 0.08, V -0.135 ± 0.05, Q -0.28 ± 0.088, D -0.585 ± 0.13, T -0.132 ± 0.074, A -0.578 ± 0.078, P -0.816 ± 0.17, K -0.892 ± 0.13, H -0.076 ± 0.11, G -0.625 ± 0.057, R -0.728 ± 0.069
I5: E -0.767 ± 0.11, N -0.916 ± 0.24, R -0.784 ± 0.069, K -1.16 ± 0.21, S -0.765 ± 0.099, H -0.514 ± 0.17, T -0.437 ± 0.1, D -0.973 ± 0.18, G -0.643 ± 0.056, F -0.815 ± 0.17, P -0.543 ± 0.11, A -0.837 ± 0.11, M -0.803 ± 0.12, V -0.265 ± 0.058, C -0.535 ± 0.11, W -0.625 ± 0.073, L -0.698 ± 0.085, Y -0.969 ± 0.23
P15: R -0.406 ± 0.052, Q -0.064 ± 0.077, A -0.142 ± 0.055, I -0.863 ± 0.22, F -0.891 ± 0.48, N -0.529 ± 0.17, T -0.058 ± 0.065, S -0.078 ± 0.058, E 0.136 ± 0.052, H -0.348 ± 0.18, C -0.33 ± 0.14, Y -0.743 ± 0.21, G -0.47 ± 0.054, L -0.654 ± 0.092, D -0.464 ± 0.11
Y7: L -0.735 ± 0.083, W -0.869 ± 0.14, D -0.947 ± 0.19, A -0.882 ± 0.14, E -0.608 ± 0.13, P -0.806 ± 0.15, C -0.663 ± 0.14, V -0.37 ± 0.064, G -0.833 ± 0.09, T -0.731 ± 0.12, S -0.884 ± 0.11, K -0.749 ± 0.14, I -0.74 ± 0.14, N -0.636 ± 0.16, Q -0.975 ± 0.19, R -0.811 ± 0.086, H -0.78 ± 0.26
G11: Y -0.391 ± 0.14, D 0.192 ± 0.061, S -0.262 ± 0.061, P -0.668 ± 0.12, N 0.095 ± 0.082, Q -0.322 ± 0.099, A -0.356 ± 0.064, F -0.586 ± 0.16, L -0.389 ± 0.068, W -0.466 ± 0.086, T -0.418 ± 0.091, I -1.06 ± 0.31, C -0.333 ± 0.1, H -0.471 ± 0.19, E -0.112 ± 0.061, K -0.384 ± 0.096, M -0.617 ± 0.12, R -0.435 ± 0.059, V -0.919 ± 0.096
